The values that follow come from US5922685.

Experiment [1] deals with CD4 (mouse) (UniProt P06332).
For experiment [2], the target named is CD8 (mouse).

Some results are limits rather than exact numbers.

Take anti-CD4 mAb (clone GK1.5) (antibody): the depletion of T cell subset in mice in experiment [1] is > 90%.
Consider anti-CD8 mAb (clone 2.43) (antibody), for which, in experiment [2], the depletion of T cell subset in mice was > 90%.
